{
  "source": "paper PMC10516904",
  "about": "“Dual enzyme-powered chemotactic cross β amyloid based functional nanomotors” (Nature Communications, 2023)",
  "molecular_target": "the molecule itself",
  "experiment": "TEM, SEM, AFM, CD and FTIR of the assembled peptide; peptide assembled in 40% acetonitrile/water with 0.1% TFA for a month",
  "data": [
    {"protein": "Ac-KLVFFAL-NH2 (also called Ac-KL nanotubes; amylobots (chassis); source: short nanotubes by probe sonication)", "note": "[Ac-KLVFFAL-CONH2]", "values": [
      {"measurement": "binding result", "value": "binds"}
    ]}
  ]
}
